This assay relates to 3D human trabecular meshwork (HTM) cells co-cultured with human Schlemms' canal (HSC) cells. Nature of the assay: Outflow facility in bioengineered 3D HTM/HSC ex vivo human eye tissue model, ANGPTL7 or dexamethasone. The format is cell-based. The following applies: 3D-HTM donors; 500 nM Dexamethasone or 50 ng/mL ANGPTL7 vs vehicle (DMSO). As for the experimental part:
Experiments were conducted to determine the effects of ANGPTL7 on outflow facility in a bioengineered ex vivo human eye tissue model. Glauconix developed a proprietary technology allowing multi-layer growth of bioengineered 3D human trabecular meshwork (HTM) cells co-cultured with human Schlemms' canal (HSC) cells, thereby mimicking the architecture of the tissues responsible for pressure build-up in the human eye (FIG. 3A). This allows endpoint analyses relevant to IOP-modulation. This scaffolding of cells is used to compare treatment effects of vehicle (DMSO), dexamethasone (a steroid known to elevate IOP), and human ANGPTL7 protein on outflow facility.
Briefly, HTM cells were thawed and allowed to grow for about 7 days (media changes every 2 days). The HTM cells were seeded onto scaffolds and HSC cells were thawed on the same day; the HTM cells were allowed to grow for 7 days on the scaffolds with media changes every 2 days. HSCs were co-cultured on the back side of the HTM scaffolds and grown for 10-12 days with media changes every 2 days. […]
Samples were analyzed using One-way ANOVA (GraphPad Prism Software, Inc., La Jolla, CA), *P<0.05, **P<0.0.01, ***P<0.001 N=4 per treatment group. […] […]

“Also recorded” adds a separate entry of the source.

B1: ANGPTL7: human ANGPTL7 protein (angiopoietin-related protein 7), made by Biortus, used as treatment at 50 ng/mL (protein)
chain: QKLSKHKTPAQPQLKAANCCEEVKELKAQVANLSSLLSELNKKQERDWVSVVMQVMELESNSKRMESRLTDAESKYSEMNNQIDIMQLQAAQTVTQTSADAIYDCSSLYQKNYRISGVYKLPPDDFLGSPELEVFCDMETSGGGWTIIQRRKSGLVSFYRDWKQYKQGFGSIRGDFWLGNEHIHRLSRQPTRLRVEMEDWEGNLRYAEYSHFVLGNELNSYRLFLGNYTGNVGNDALQYHNNTAFSTKDKDNDNCLDKCAQLRKGGYWYNCCTDSNLNGVYYRLGEHNKHLDGITWYGWHGSTYSLKRVEMKIRPEDFKP
As to B1, the outflow facility entry is “reduced outflow facility; also recorded: significantly decreased outflow facility”.
